For data set [1], the target named is T1, engineered MS26+ endonuclease, intron-containing gene (ST-LS1 intron) (synthetic construct (Chlamydomonas reinhardtii I-CreI derived)?) (UniProt P05725).
T1 sequence: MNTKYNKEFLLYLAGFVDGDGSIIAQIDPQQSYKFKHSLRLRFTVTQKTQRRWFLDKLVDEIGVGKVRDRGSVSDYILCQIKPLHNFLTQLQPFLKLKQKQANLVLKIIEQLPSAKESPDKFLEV
The data set is described as follows: cell_activity. The settings on record: 3 of 257 T0 maize plants.

Data set [2] concerns engineered MS26++ endonuclease (I-CreI-based) (synthetic construct (Chlamydomonas reinhardtii I-CreI derived)?). In words: cell_activity. The settings on record: 15 mutations among 344 T0 maize plants as printed; Agrobacterium.

As for “GATGGTGACGTACGTGCCCTAC (double strand) [TS-MS26 target site (maize MS26 exon 5)]”, the activity (% T0 plants mutated) in data set [1] was 1.2; in data set [2] it was 5.8.
